{
  "source": "patent US20160257748A1",
  "about": "(Amgen, published 2016)",
  "binders": {"B1": {"name": "aFOLR1-Fc-aCD3 (bispecific antibody)", "chain 1": "QVQLQESGPGLVKPSQTLSLTCTVSGGSISSGAYYWTWIRQHPGKGLEWIGYIYYSGSTYYNPSLKSRVSISIDTSKNQFSLKLSSVTAADTAVYYCARGSSSWFDYWGQGTLVTVSSASTKGPSVFPLAPSSKSTSGGTAALGCLVKDYFPEPVTVSWNSGALTSGVHTFPAVLQSSGLYSLSSVVTVPSSSLGTQTYICNVNHKPSNTKVDKRVEPKSCDKTHTCPPCPAPEAAGGPSVFLFPPKPKDTLMISRTPEVTCVVVDVSHEDPEVKFNWYVDGVEVHNAKTKPREEQYNSTYRVVSVLTVLHQDWLNGKEYKCKVSNKALPAPIEKTISKAKGQPREPQVYTLPPSRKEMTKNQVSLTCLVKGFYPSDIAVEWESNGQPENNYKTTPPVLKSDGSFFLYSKLTVDKSRWQQGNVFSCSVMHEALHNHYTQKSLSLSPGKAAAGGGGSGGGGSEVQLVESGGGLVQPGGSLKLSCAASGFTFNSYAMNWVRQAPGKGLEWVARIRSKYNNYATYYADSVKGRFTISRDDSKNTAYLQMNNLKTEDTAVYYCVRHGNFGNSYVSWWAYWGQGTLVTVSSASTKGPSVFPLAPSSKSTSGGTAALGCLVKDYFPEPVTVSWNSGALTSGVHTFPAVLQSSGLYSLSSVVTVPSSSLGTQTYICNVNHKPSNTKVDKRVEPKSC", "chain 2": "not shown"}, "B2": {"name": "aCD3-Fc-aHER2 (bispecific antibody)", "chain 1": "EVQLVESGGGLVQPGGSLKLSCAASGFTFNSYAMNWVRQAPGKGLEWVARIRSKYNNYATYYADSVKGRFTISRDDSKNTAYLQMNNLKTEDTAVYYCVRHGNFGNSYVSWWAYWGQGTLVTVSSASTKGPSVFPLAPSSKSTSGGTAALGCLVKDYFPEPVTVSWNSGALTSGVHTFPAVLQSSGLYSLSSVVTVPSSSLGTQTYICNVNHKPSNTKVDKRVEPKSCDKTHTCPPCPAPEAAGGPSVFLFPPKPKDTLMISRTPEVTCVVVDVSHEDPEVKFNWYVDGVEVHNAKTKPREEQYNSTYRVVSVLTVLHQDWLNGKEYKCKVSNKALPAPIEKTISKAKGQPREPQVYTLPPSRKEMTKNQVSLTCLVKGFYPSDIAVEWESNGQPENNYKTTPPVLKSDGSFFLYSKLTVDKSRWQQGNVFSCSVMHEALHNHYTQKSLSLSPGKAAAGGGGSGGGGSEVQLLEQSGAELVRPGALVKLSCKASGFKIKDYFVNWVKQRPEQGLEWIGWIDPENDNSLYGPNFQDKASITADTSSNTGYLQLSGLTSEDTAVYYCALYYGSRGDAMDYWGQGTTVTVSSASTKGPSVFPLAPSSKSTSGGTAALGCLVKDYFPEPVTVSWNSGALTSGVHTFPAVLQSSGLYSLSSVVTVPSSSLGTQTYICNVNHKPSNTKVDKRVEPKSC", "chain 2": "not shown"}, "B3": {"name": "aCD3-Fc-aFOLR1 (bispecific antibody)", "chain 1": "EVQLVESGGGLVQPGGSLKLSCAASGFTFNSYAMNWVRQAPGKGLEWVARIRSKYNNYATYYADSVKGRFTISRDDSKNTAYLQMNNLKTEDTAVYYCVRHGNFGNSYVSWWAYWGQGTLVTVSSASTKGPSVFPLAPSSKSTSGGTAALGCLVKDYFPEPVTVSWNSGALTSGVHTFPAVLQSSGLYSLSSVVTVPSSSLGTQTYICNVNHKPSNTKVDKRVEPKSCDKTHTCPPCPAPEAAGGPSVFLFPPKPKDTLMISRTPEVTCVVVDVSHEDPEVKFNWYVDGVEVHNAKTKPREEQYNSTYRVVSVLTVLHQDWLNGKEYKCKVSNKALPAPIEKTISKAKGQPREPQVYTLPPSRKEMTKNQVSLTCLVKGFYPSDIAVEWESNGQPENNYKTTPPVLKSDGSFFLYSKLTVDKSRWQQGNVFSCSVMHEALHNHYTQKSLSLSPGKAAAGGGGSGGGGSQVQLQESGPGLVKPSQTLSLTCTVSGGSISSGAYYWTWIRQHPGKGLEWIGYIYYSGSTYYNPSLKSRVSISIDTSKNQFSLKLSSVTAADTAVYYCARGSSSWFDYWGQGTLVTVSSASTKGPSVFPLAPSSKSTSGGTAALGCLVKDYFPEPVTVSWNSGALTSGVHTFPAVLQSSGLYSLSSVVTVPSSSLGTQTYICNVNHKPSNTKVDKRVEPKSC", "chain 2": "not shown"}, "B4": {"name": "aHER2-Fc-aCD3 (bispecific antibody)", "chain 1": "EVQLLEQSGAELVRPGALVKLSCKASGFKIKDYFVNWVKQRPEQGLEWIGWIDPENDNSLYGPNFQDKASITADTSSNTGYLQLSGLTSEDTAVYYCALYYGSRGDAMDYWGQGTTVTVSSASTKGPSVFPLAPSSKSTSGGTAALGCLVKDYFPEPVTVSWNSGALTSGVHTFPAVLQSSGLYSLSSVVTVPSSSLGTQTYICNVNHKPSNTKVDKRVEPKSCDKTHTCPPCPAPEAAGGPSVFLFPPKPKDTLMISRTPEVTCVVVDVSHEDPEVKFNWYVDGVEVHNAKTKPREEQYNSTYRVVSVLTVLHQDWLNGKEYKCKVSNKALPAPIEKTISKAKGQPREPQVYTLPPSRKEMTKNQVSLTCLVKGFYPSDIAVEWESNGQPENNYKTTPPVLKSDGSFFLYSKLTVDKSRWQQGNVFSCSVMHEALHNHYTQKSLSLSPGKAAAGGGGSGGGGSEVQLVESGGGLVQPGGSLKLSCAASGFTFNSYAMNWVRQAPGKGLEWVARIRSKYNNYATYYADSVKGRFTISRDDSKNTAYLQMNNLKTEDTAVYYCVRHGNFGNSYVSWWAYWGQGTLVTVSSASTKGPSVFPLAPSSKSTSGGTAALGCLVKDYFPEPVTVSWNSGALTSGVHTFPAVLQSSGLYSLSSVVTVPSSSLGTQTYICNVNHKPSNTKVDKRVEPKSC", "chain 2": "not shown"}, "B5": {"name": "aCD3/HER2 heterodimer (bispecific antibody)", "chain 1": "EVQLVESGGGLVQPGGSLKLSCAASGFTFNSYAMNWVRQAPGKGLEWVARIRSKYNNYATYYADSVKGRFTISRDDSKNTAYLQMNNLKTEDTAVYYCVRHGNFGNSYVSWWAYWGQGTLVTVSSGGGGSGGGGSELVMTQTPSSLSASLGDRVTISCRASQDISNYLNWYQQKPDGTVKLLIYYTSRLHSGVPSRFSGSGSGTDYSLTISNLEQEDIATYFCQQGNTLPLTFGAGTKLEIKASTKGPSVFPLAPCSRSTSESTAALGCLVKDYFPEPVTVSWNSGALTSGVHTFPAVLQSSGLYSLSSVVTVPSSNFGTQTYTCNVDHKPSNTKVDKTVGGGGSAAAEPKSSDKTHTCPPCPAPEAAGGPSVFLFPPKPKDTLMISRTPEVTCVVVDVSHEDPEVKFNWYVDGVEVHNAKTKPREEQYNSTYRVVSVLTVLHQDWLNGKEYKCKVSNKALPAPIEKTISKAKGQPREPQVYTLPPSREEMTKNQVSLTCLVKGFYPSDIAVEWESNGQPENNYDTTPPVLDSDGSFFLYSDLTVDKSRWQQGNVFSCSVMHEALHNHYTQKSLSLSPGK", "chain 2": "not shown", "notes": "also called P136797.3; positive control heterodimeric antibody"}},
  "key": {"folate receptor 1 [1]": {"target": "T1, folate receptor 1 (human, UniProt P15328 25-234)", "T1 sequence (P15328 25-234)": "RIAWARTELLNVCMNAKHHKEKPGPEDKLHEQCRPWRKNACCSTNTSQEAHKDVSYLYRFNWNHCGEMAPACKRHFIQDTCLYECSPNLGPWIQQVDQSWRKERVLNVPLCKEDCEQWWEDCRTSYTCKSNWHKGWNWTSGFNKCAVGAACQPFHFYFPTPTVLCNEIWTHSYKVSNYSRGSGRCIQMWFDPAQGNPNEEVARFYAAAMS", "assay": "cell-based or functional assay"}, "folate receptor 1 [2]": {"target": "T1, folate receptor 1", "assay": "cell-based or functional assay", "remark": "listed apart in the source"}, "[3]": {"target": "T2, Human Epidermal Growth Factor Receptor (HER2) (human, UniProt P04626 23-1255)", "assay": "cell-based or functional assay"}, "[4]": {"target": "T2, Human Epidermal Growth Factor Receptor …", "assay": "cell-based or functional assay", "remark": "listed apart in the source"}, "[5]": {"target": "T2, Human Epidermal Growth Factor Receptor …", "assay": "cell-based or functional assay", "remark": "listed apart in the source"}, "[6]": {"target": "T2, Human Epidermal Growth Factor Receptor …", "assay": "FACS titration on T47D cells"}},
  "data": [
    {"binder": "B1", "values": [
      {"measurement": "EC50 (concentration for half maximal lysis), T cell dependent cytolysis of Cal-51 cells", "setting": "folate receptor 1 [1]", "result": 114, "unit": "pM"},
      {"measurement": "EC50 (concentration for half maximal lysis), T cell dependent cytolysis of T47D cells", "setting": "folate receptor 1 [1]", "result": 106, "unit": "pM"},
      {"measurement": "EC50 (pM), T cell dependent cytolysis of Cal-51 cells", "setting": "folate receptor 1 [2]", "result": 60.9, "unit": "pM"}
    ]},
    {"binder": "B2", "values": [
      {"measurement": "EC50, T cell dependent cytolysis of JIMT-1 cells", "setting": "[3]", "result": 51.8, "unit": "pM"}
    ]},
    {"binder": "B3", "values": [
      {"measurement": "EC50 (pM), T cell dependent cytolysis of Cal-51 cells", "setting": "folate receptor 1 [2]", "result": 306, "unit": "pM"}
    ]},
    {"binder": "B4", "values": [
      {"measurement": "EC50, T cell dependent cytolysis of JIMT-1 cells", "setting": "[3]", "result": 56.5, "unit": "pM"},
      {"measurement": "EC50 (pM), % CD25+ T cells (with SKOV-3 cells)", "setting": "[4]", "result": 79.3, "unit": "pM"},
      {"measurement": "EC50 (pM), % of T cells that are dividing (with SKOV-3 cells)", "setting": "[4]", "result": 76.7, "unit": "pM"},
      {"measurement": "EC50 (pM), T cell dependent cytolysis of BT474 cells", "setting": "[5]", "result": 638, "unit": "pM"},
      {"measurement": "EC50 (pM), T cell dependent cytolysis of SKOV-3 cells", "setting": "[5]", "result": 165, "unit": "pM"}
    ]},
    {"binder": "B5", "values": [
      {"measurement": "binding result", "setting": "[6]", "result": "binds"}
    ]}
  ]
}
